Here are results for 3 molecules from patent US20220033519A1 (NATIONAL RESEARCH COUNCIL OF CANADA, published 2022).

To fix the notation:
B1: anti-FUT8 monoclonal antibody 1D2 (hybridoma) (antibody, V domains shown)
VH: QVQLKESGPGLVAPSQSLSITCTVSGFSLTGYGVNWVRQPPGKGLEWLGMIWGDGSTDYNSALKSRLSISKDNSKSQVFLKMNSLQTDDTASYYCARDFYDGYLYAMDYWGQGTSVTVSSAS
VL: DIVMTQSQKFMSTSLGDRVSVTCKASQNVGSYVAWYQQKPGQSPKALIYSASYRYSGVPDRFAGSGSGTDFTLTISNVQSEDLAEYFCQQYYTYPYTFGGGTWSTRLASWAFRSL
B2: anti-FUT8 monoclonal antibody 1H9 (hybridoma) (antibody, V domains shown)
VH: EVQLQQSGPELVKPGASVKMSCKASGYIFTDYVMHWVKQSNGKSLEWIGYINPYNDYSNYNQKFKGKATLTVDKSSNTAYMQLNSLTSEDSAVYFCARSGDVWLAYWGQGTLVTISA
VL: DIVLTQSPASLAISLGQRATISCRASKSVSTSGYSYMHWYQQKPGQPPRLLIYLASNLESGVPARFSGSGSGTDFTLNIHPVEEEDGATYYCQHSRELPWTFGGGT
B3: anti-FUT8 monoclonal antibody 5C9 (hybridoma) (antibody, V domains shown)
VH: QVQLKESGPGLVAPSQSLSITCTVSGFSLTGYGVNWVRQPPGKGLEWLGTIWGDGSTDYNSALKSRLSISKDNSKTQVFLKMHSLQTDDTAIYYCARGGYDDYFGYAMDYWGQGTSVTVSS
VL: DIVMTQSQKFMSTVVGDRVSVTCKASQNVGTNVAWYQQKPGQSPKALIYSASYRYSGVPDRLTGSGSGTDFTLTFSYVQSEDLAEYFCQQYYTYPYTFGGGTKLEIK

The test concerns the target T1, soluble and secreted FUT8 (sFUT8) enzyme (aa 87-575; UniProtKB #Q9BYC5) with C-terminal polyhistidine tag (UniProt Q9BYC5 87-575).
T1 sequence: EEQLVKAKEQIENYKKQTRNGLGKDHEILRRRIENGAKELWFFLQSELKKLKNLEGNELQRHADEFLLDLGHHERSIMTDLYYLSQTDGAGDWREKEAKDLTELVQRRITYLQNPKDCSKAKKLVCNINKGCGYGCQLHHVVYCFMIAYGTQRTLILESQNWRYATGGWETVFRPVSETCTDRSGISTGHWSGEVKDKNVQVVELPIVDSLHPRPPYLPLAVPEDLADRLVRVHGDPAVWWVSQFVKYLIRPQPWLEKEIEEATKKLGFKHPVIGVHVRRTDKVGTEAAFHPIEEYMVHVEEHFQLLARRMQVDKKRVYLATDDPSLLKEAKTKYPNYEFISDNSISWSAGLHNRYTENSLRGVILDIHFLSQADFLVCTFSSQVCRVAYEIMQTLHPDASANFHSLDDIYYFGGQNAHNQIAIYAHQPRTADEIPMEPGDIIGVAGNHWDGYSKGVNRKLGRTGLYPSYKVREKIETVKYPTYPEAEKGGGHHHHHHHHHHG
The experiment in a line: cell-based or functional assay.
For the molecule B1, the “FUT8 enzymatic activity (% inhibition)” value is 82%. Next, B2: 60%. Next, B3: 87%.
